Test results reported in PMC3938430, “Biochemical Characterization of a Haloalkane Dehalogenase DadB from Alcanivorax dieselolei B-5” (PLoS ONE, 2014).

Assays:
Experiment in all cases: steady-state kinetics, gas chromatography (FID)
DadB = target: T1, DadB (Alloalcanivorax dieselolei, UniProt K0CAI2); type: biochemical; conditions: 100 mM glycine buffer, pH 8.6, 37°C; substrate self-inhibition constant
T1 construct: gene B5T_00392; HLD-II subfamily, nucleophile D108
Source text: (§1) steady-state kinetics, gas chromatography (FID) on DadB

N#CCCCBr = type: biochemical, Alloalcanivorax dieselolei; conditions: 100 mM glycine buffer, pH 8.6, 37°C, fit with substrate inhibition
Source text: as §1

C=C(Cl)CCl = system: T2, C=C(Cl)CCl; type: biochemical, Alloalcanivorax dieselolei; conditions: 100 mM glycine buffer, pH 8.6, 37°C
T2 construct: HLD-II subfamily, nucleophile D108
Source text: as §1

BrCCCBr = type: biochemical, Alloalcanivorax dieselolei; conditions: 100 mM glycine buffer, pH 8.6, 37°C
Source text: as §1

BrCCBr = system: T3, BrCCBr; type: biochemical, Alloalcanivorax dieselolei; conditions: 100 mM glycine buffer, pH 8.6, 37°C
T3 construct: HLD-II subfamily, nucleophile D108
Source text: as §1

CCCCCl = type: biochemical, Alloalcanivorax dieselolei; conditions: 100 mM glycine buffer, pH 8.6, 37°C
Source text: as §1

C=C(C)CCl = system: T4, C=C(C)CCl; type: biochemical, Alloalcanivorax dieselolei; conditions: 100 mM glycine buffer, pH 8.6, 37°C
T4 construct: HLD-II subfamily, nucleophile D108
Source text: as §1

Row | Compound | k i (DadB) [mM] | Km (N#CCCCBr) [mM] | kcat (N#CCCCBr) [s⁻¹] | kcat/Km (N#CCCCBr) [M⁻¹ s⁻¹] | Km (C=C(Cl)CCl) [mM] | kcat (C=C(Cl)CCl) [s⁻¹] | kcat/Km (C=C(Cl)CCl) [M⁻¹ s⁻¹] | Km (BrCCCBr) [mM] | kcat (BrCCCBr) [s⁻¹] | kcat/Km (BrCCCBr) [M⁻¹ s⁻¹] | Km (BrCCBr) [mM] | kcat (BrCCBr) [s⁻¹] | kcat/Km (BrCCBr) [M⁻¹ s⁻¹] | Km (CCCCCl) [mM] | kcat (CCCCCl) [s⁻¹] | kcat/Km (CCCCCl) [M⁻¹ s⁻¹] | Km (C=C(C)CCl) [mM] | kcat (C=C(C)CCl) [s⁻¹] | kcat/Km (C=C(C)CCl) [M⁻¹ s⁻¹]
1 | N#CCCCBr [4-bromobutanenitrile] | 17.93 ± 1.97 |  |  |  |  |  |  |  |  |  |  |  |  |  |  |  |  |  | 
2 | DadB (Alloalcanivorax dieselolei B5) |  | 8.47 ± 1.27 | 30.8 ± 2.49 | 3640 | 15.06 ± 1.37 | 20.1 ± 1.09 | 1330 | 0.82 ± 0.04 | 13.4 ± 0.99 | 16400 | 8.70 ± 0.44 | 17.9 ± 0.5 | 2060 | 4.88 ± 0.35 | 1.17 ± 0.1 | 240 | 11.33 ± 0.99 | 34.3 ± 1.99 | 3020
